Laboratory results as given in patent US20250313634A1 (WUXI BIOLOGICS SHANGHAI, published 2025).

Assays:
Assay in all cases: capture ELISA on coated 1.14.4; relative to silent alanine substitutions
[1] = molecular target: T1, hPD-L1_ECD.His point mutant I199A (human, UniProt Q9NZQ7 19-238)
T1 construct: extracellular domain
Experimental: (§1) After interacting with the supernatant that contains quantified PD-L1 mutant or human/mouse PD-L1_ECD.His protein (Sino Biological, China), HRP conjugated anti-His antibody (1:5000; Rockland Immunochemicals, Pottstown, PA) was added as detection antibody. Absorbance was normalized according to the average of control mutants. After setting an additional cutoff to the binding fold change (<0.55), the final determined epitope residues were identified.
(§2) The observed binding reductions most probably resulted from the instability or even collapse of hPD-L1 structure after alanine substitutions. After setting an additional cutoff to the binding fold change (<0.55), the final determined epitope residues were listed in Table 3.

[2] = molecular target: T2, hPD-L1_ECD.His point mutant E188A (human, UniProt Q9NZQ7 19-238)
T2 construct: extracellular domain
Experimental: as §1, §2

[3] = molecular target: T3, hPD-L1_ECD.His point mutant R125A (human, UniProt Q9NZQ7 19-238)
T3 construct: extracellular domain
Experimental: as §1, §2

[4] = molecular target: T4, hPD-L1_ECD.His point mutant G70A (human, UniProt Q9NZQ7 19-238)
T4 construct: extracellular domain
Experimental: as §1, §2

[5] = molecular target: T5, hPD-L1_ECD.His point mutant N96A (human, UniProt Q9NZQ7 19-238)
T5 construct: extracellular domain
Experimental: as §1, §2

[6] = molecular target: T6, hPD-L1_ECD.His point mutant V174A (human, UniProt Q9NZQ7 19-238)
T6 construct: extracellular domain
Experimental: as §1, §2

[7] = molecular target: T7, hPD-L1_ECD.His point mutant K89A (human, UniProt Q9NZQ7 19-238)
T7 construct: extracellular domain
Experimental: as §1, §2

[8] = molecular target: T8, hPD-L1_ECD.His point mutant D61A (human, UniProt Q9NZQ7 19-238)
T8 construct: extracellular domain
Experimental: as §1, §2

[9] = molecular target: T9, hPD-L1_ECD.His point mutant H78A (human, UniProt Q9NZQ7 19-238)
T9 construct: extracellular domain
Experimental: as §1, §2

[10] = molecular target: T10, hPD-L1_ECD.His point mutant D73A (human, UniProt Q9NZQ7 19-238)
T10 construct: extracellular domain
Experimental: as §1, §2

[11] = molecular target: T11, hPD-L1_ECD.His point mutant V76A (human, UniProt Q9NZQ7 19-238)
T11 construct: extracellular domain
Experimental: as §1, §2

[12] = molecular target: T12, hPD-L1_ECD.His point mutant S79A (human, UniProt Q9NZQ7 19-238)
T12 construct: extracellular domain
Experimental: as §1, §2

[13] = molecular target: T13, hPD-L1_ECD.His point mutant D215A (human, UniProt Q9NZQ7 19-238)
T13 construct: extracellular domain
Experimental: as §1, §2

[14] = molecular target: T14, hPD-L1_ECD.His point mutant G120A (human, UniProt Q9NZQ7 19-238)
T14 construct: extracellular domain
Experimental: as §1, §2

[15] = molecular target: T15, hPD-L1_ECD.His point mutant A52G (human, UniProt Q9NZQ7 19-238)
T15 construct: extracellular domain
Experimental: as §1, §2

[16] = molecular target: T16, hPD-L1_ECD.His point mutant V128A (human, UniProt Q9NZQ7 19-238)
T16 construct: extracellular domain
Experimental: as §1, §2

[17] = molecular target: T17, hPD-L1_ECD.His point mutant V29A (human, UniProt Q9NZQ7 19-238)
T17 construct: extracellular domain
Experimental: as §1, §2

[18] = molecular target: T18, hPD-L1_ECD.His point mutant R113A (human, UniProt Q9NZQ7 19-238)
T18 construct: extracellular domain
Experimental: as §1, §2

[19] = molecular target: T19, hPD-L1_ECD.His point mutant K129A (human, UniProt Q9NZQ7 19-238)
T19 construct: extracellular domain
Experimental: as §1, §2

[20] = molecular target: T20, hPD-L1_ECD.His point mutant I64A (human, UniProt Q9NZQ7 19-238)
T20 construct: extracellular domain
Experimental: as §1, §2

[21] = molecular target: T21, hPD-L1_ECD.His point mutant L74A (human, UniProt Q9NZQ7 19-238)
T21 construct: extracellular domain
Experimental: as §1, §2

[22] = molecular target: T22, hPD-L1_ECD.His point mutant E237A (human, UniProt Q9NZQ7 19-238)
T22 construct: extracellular domain
Experimental: as §1, §2

[23] = molecular target: T23, hPD-L1_ECD.His point mutant K46A (human, UniProt Q9NZQ7 19-238)
T23 construct: extracellular domain
Experimental: as §1, §2

[24] = molecular target: T24, hPD-L1_ECD.His point mutant S169A (human, UniProt Q9NZQ7 19-238)
T24 construct: extracellular domain
Experimental: as §1, §2

[25] = molecular target: T25, hPD-L1_ECD.His point mutant M59A (human, UniProt Q9NZQ7 19-238)
T25 construct: extracellular domain
Experimental: as §1, §2

[26] = molecular target: T26, hPD-L1_ECD.His point mutant L231A (human, UniProt Q9NZQ7 19-238)
T26 construct: extracellular domain
Experimental: as §1, §2

T5 sequence (Q9NZQ7 19-238 N96A): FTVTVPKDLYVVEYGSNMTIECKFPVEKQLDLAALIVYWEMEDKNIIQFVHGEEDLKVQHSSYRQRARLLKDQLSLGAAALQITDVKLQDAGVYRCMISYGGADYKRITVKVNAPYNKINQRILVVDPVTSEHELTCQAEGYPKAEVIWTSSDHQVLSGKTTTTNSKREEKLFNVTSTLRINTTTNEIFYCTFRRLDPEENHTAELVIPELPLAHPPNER
T14 sequence (Q9NZQ7 19-238 G120A): as the sequence (Q9NZQ7 19-238 N96A) above, with A78N, G102A counted along it
T20 sequence (Q9NZQ7 19-238 I64A): as the sequence (Q9NZQ7 19-238 N96A) above, with I46A, A78N counted along it
T16 sequence (Q9NZQ7 19-238 V128A): as the sequence (Q9NZQ7 19-238 N96A) above, with A78N, V110A counted along it
T2 sequence (Q9NZQ7 19-238 E188A): as the sequence (Q9NZQ7 19-238 N96A) above, with A78N, E170A counted along it
T1 sequence (Q9NZQ7 19-238 I199A): as the sequence (Q9NZQ7 19-238 N96A) above, with A78N, I181A counted along it
T21 sequence (Q9NZQ7 19-238 L74A): as the sequence (Q9NZQ7 19-238 N96A) above, with L56A, A78N counted along it
T22 sequence (Q9NZQ7 19-238 E237A): as the sequence (Q9NZQ7 19-238 N96A) above, with A78N, E219A counted along it
T6 sequence (Q9NZQ7 19-238 V174A): as the sequence (Q9NZQ7 19-238 N96A) above, with A78N, V156A counted along it
T25 sequence (Q9NZQ7 19-238 M59A): as the sequence (Q9NZQ7 19-238 N96A) above, with M41A, A78N counted along it
T11 sequence (Q9NZQ7 19-238 V76A): as the sequence (Q9NZQ7 19-238 N96A) above, with V58A, A78N counted along it
T12 sequence (Q9NZQ7 19-238 S79A): as the sequence (Q9NZQ7 19-238 N96A) above, with S61A, A78N counted along it
T26 sequence (Q9NZQ7 19-238 L231A): as the sequence (Q9NZQ7 19-238 N96A) above, with A78N, L213A counted along it
T17 sequence (Q9NZQ7 19-238 V29A): as the sequence (Q9NZQ7 19-238 N96A) above, with V11A, A78N counted along it
T3 sequence (Q9NZQ7 19-238 R125A): as the sequence (Q9NZQ7 19-238 N96A) above, with A78N, R107A counted along it
T7 sequence (Q9NZQ7 19-238 K89A): as the sequence (Q9NZQ7 19-238 N96A) above, with K71A, A78N counted along it
T9 sequence (Q9NZQ7 19-238 H78A): as the sequence (Q9NZQ7 19-238 N96A) above, with H60A, A78N counted along it
T10 sequence (Q9NZQ7 19-238 D73A): as the sequence (Q9NZQ7 19-238 N96A) above, with D55A, A78N counted along it
T18 sequence (Q9NZQ7 19-238 R113A): as the sequence (Q9NZQ7 19-238 N96A) above, with A78N, R95A counted along it
T23 sequence (Q9NZQ7 19-238 K46A): as the sequence (Q9NZQ7 19-238 N96A) above, with K28A, A78N counted along it
T8 sequence (Q9NZQ7 19-238 D61A): as the sequence (Q9NZQ7 19-238 N96A) above, with D43A, A78N counted along it
T13 sequence (Q9NZQ7 19-238 D215A): as the sequence (Q9NZQ7 19-238 N96A) above, with A78N, D197A counted along it
T4 sequence (Q9NZQ7 19-238 G70A): as the sequence (Q9NZQ7 19-238 N96A) above, with G52A, A78N counted along it
T19 sequence (Q9NZQ7 19-238 K129A): as the sequence (Q9NZQ7 19-238 N96A) above, with A78N, K111A counted along it
T15 sequence (Q9NZQ7 19-238 A52G): as the sequence (Q9NZQ7 19-238 N96A) above, with A34G, A78N counted along it
T24 sequence (Q9NZQ7 19-238 S169A): as the sequence (Q9NZQ7 19-238 N96A) above, with A78N, S151A counted along it

B1: 1.14.4 (antibody, V domains shown)
VH: EVQLLESGGGLVQPGGSLRLSCAASGFTFSSYAMSWVRQAPGKGLEWVSGISGSGGFTYYADSVKGRFTISRDNSKNTLYLQMNSLRAEDTAVYYCAKPPRGYNYGPFDYWGQGTLVTVSS
VL: SYVLTQPPSVSVAPGQTARITCGGNNIGSKSVHWYQQKPGQAPVLVVYDDSDRPSGIPERFSGSNSGNTATLTISRVEAGDEADYYCQVWDSSSDHVVFGGGTKLTVL
notes: Fully human monoclonal antibody with a human constant region of IgG4 isotype
[1]
  fold change: 0.848 fold
[2]
  fold change: 0.833 fold
[3]
  fold change: 0.959 fold
[4]
  fold change: 0.602 fold
[5]
  fold change: 0.924 fold
[6]
  fold change: 0.983 fold
[7]
  fold change: 0.913 fold
[8]
  fold change: 0.372 fold
[9]
  fold change: 0.821 fold
[10]
  fold change: 0.988 fold
[11]
  fold change: 0.76 fold
[12]
  fold change: 0.962 fold
[13]
  fold change: 0.811 fold
[14]
  fold change: 0.895 fold
[15]
  fold change: 0.622 fold
[16]
  fold change: 0.701 fold
[17]
  fold change: 0.882 fold
[18]
  fold change: 0.161 fold
[19]
  fold change: 0.586 fold
[20]
  fold change: 0.716 fold
[21]
  fold change: 1.02 fold
[22]
  fold change: 0.956 fold
[23]
  fold change: 1.08 fold
[24]
  fold change: 0.939 fold
[25]
  fold change: 1.01 fold
[26]
  fold change: 0.838 fold
